Assay results published in patent EP4789728A2 (Serpin Pharma, LLC, dated 2026).
No end group written: not given here.

T1: recombinant LRP1-FC fusion protein (Cluster II) (UniProt Q07954 805-1184, limits assumed)
T1 construct: domain: Cluster II; Captured on protein G Dynabeads; not shown: Fc part
T1 sequence (looked up): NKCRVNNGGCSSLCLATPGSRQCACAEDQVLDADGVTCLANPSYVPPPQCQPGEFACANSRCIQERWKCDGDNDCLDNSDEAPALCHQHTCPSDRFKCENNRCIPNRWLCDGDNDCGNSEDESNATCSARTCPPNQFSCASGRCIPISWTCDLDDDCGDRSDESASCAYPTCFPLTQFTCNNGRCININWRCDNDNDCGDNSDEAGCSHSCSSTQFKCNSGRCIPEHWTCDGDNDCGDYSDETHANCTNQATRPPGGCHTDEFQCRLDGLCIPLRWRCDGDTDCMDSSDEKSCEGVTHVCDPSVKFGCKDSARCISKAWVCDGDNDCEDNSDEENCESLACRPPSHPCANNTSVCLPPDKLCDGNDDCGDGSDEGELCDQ

T2: Recombinant LRP1 (Cluster II) (UniProt Q07954 805-1184, limits assumed)
T2 construct: domain: Cluster II; Coated on the ELISA plate
T2 sequence (looked up): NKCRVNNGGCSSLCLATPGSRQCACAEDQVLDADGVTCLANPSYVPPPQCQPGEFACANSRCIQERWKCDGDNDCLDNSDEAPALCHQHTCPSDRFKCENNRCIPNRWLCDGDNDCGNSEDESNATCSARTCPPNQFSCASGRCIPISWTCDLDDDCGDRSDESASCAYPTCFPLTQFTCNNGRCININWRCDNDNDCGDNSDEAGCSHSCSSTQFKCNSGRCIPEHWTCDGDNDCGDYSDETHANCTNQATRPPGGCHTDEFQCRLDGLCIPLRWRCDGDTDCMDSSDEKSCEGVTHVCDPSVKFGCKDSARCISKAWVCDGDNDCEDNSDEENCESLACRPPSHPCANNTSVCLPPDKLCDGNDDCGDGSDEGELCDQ


Legend:
[1] = target: T1, recombinant LRP1-FC fusion protein …; assay: Cy5.5-labelled peptide on LRP1-FC (Cluster II) protein G beads, flow cytometry
[2] = target: T2, Recombinant LRP1 (Cluster II); assay: ELISA, plate-bound recombinant LRP1 (Cluster II), increasing concentrations of biotinylated peptide, streptavidin HRP
TMPRSS2 = TMPRSS2 (UniProt O15393 106-492, limits assumed); assay: cell-based or functional assay
TMPRSS2, sequence (O15393 106-492 limits assumed): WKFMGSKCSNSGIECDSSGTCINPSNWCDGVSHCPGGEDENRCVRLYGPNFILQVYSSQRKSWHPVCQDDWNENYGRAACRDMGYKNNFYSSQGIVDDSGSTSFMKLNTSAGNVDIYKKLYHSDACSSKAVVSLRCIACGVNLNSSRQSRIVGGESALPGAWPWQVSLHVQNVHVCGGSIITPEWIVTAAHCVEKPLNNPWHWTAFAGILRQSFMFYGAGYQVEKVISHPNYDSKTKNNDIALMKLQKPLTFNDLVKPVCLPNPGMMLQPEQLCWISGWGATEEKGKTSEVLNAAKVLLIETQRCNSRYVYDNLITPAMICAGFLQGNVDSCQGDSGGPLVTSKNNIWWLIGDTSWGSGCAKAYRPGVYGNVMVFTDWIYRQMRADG

binding result [1] | binding result [2] | IC50 of inhibition of TMPRSS2 activity (TMPRSS2) [mg/L] | Binder
no binding (tested: 1µg/ml) | – | – | VKFNKAAAAAAIEQNTK (not fully specified, also called SP16AALRP1 peptide) [SP16AALRP1]
no binding (tested: 1µg/ml) | no binding | – | FPKMVPQFNTELKIFPEVNIK (also: biotinylated in ELISA, site not given here, labelled with Cy5.5 in bead assay, site not given here, Contains the amino acids found in SP16 in scrambled orientation; also called scrambled control; scrambled control SP34 peptide) [SP34 (Scrambled Core)]
– | – | 1.12 | VKFNKPFVFLXIEQNTK (not fully specified; Norleucine (Nle) in place of the methionine (VKFNKPFVFL[Nle]IEQNTK); N-terminus acetylated; C-terminus amidated; biotinylated in the ELISA (Figure 3); labelled with Cy5.5 in the bead assay (Figure 4)) [SP163M]
